Tested on: MS2 coat protein
Experiment: apparent KD of MS2 coat protein; designed switch direction (-1 OFF switch, 1 ON switch): -1; higher = weaker reporter binding
Summary of the method: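 RNA switches sharing common flanks were transcribed by stalled E. coli RNA polymerase on Illumina chips. A doubling series of SNAP-549-labelled MS2 coat protein, from 0.7 or 1.5 nM to 3 µM, was applied in Tris-HCl pH 7.5 buffer with KCl, MgCl2, BSA, DTT, tRNA and Tween-20. Each step lasted 0.8–1.5 h at the bottom of the series and 10–20 min at the top. Normalised cluster fluorescence was curve-fitted, giving apparent KD as the per-design median over clusters.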

[1] = Eterna round: R95, input ligand: microRNA oligo, concentration not stated
[2] = Eterna round: R95, input ligand: FMN 200 uM
[3] = Eterna round: R95, input ligand: none
[4] = input ligand: microRNA oligo, concentration not stated

Row | Sequence | apparent KD of MS2 coat protein (input ligand: FMN 200 uM) [nM] | apparent KD of MS2 coat protein (input ligand: none) [nM] | also measured
1 | GGCAUGUGAGGAUAUUAACGGCCUAGACCUGGAACGCCACUUAAGAAGGUACAUGAGGAUCACCCAUGUUGGUG [Eternabot (L2) Solution 19] (Eterna round: R97, puzzle: Exclusion 4) | 711 | 367 | –
2 | GGCCCAUGAGGAUAUCAGUCUGGAUCAGACUAGAUCCUGACUGAGAAGGCACAUGAGGAUCACCCAUGUAGGCC [Eli 4x 4.30] (Eterna round: R97, puzzle: Exclusion 4) | 17.3 | 23.6 | –
3 | GGCCCGCGCGUGAGGAUAUGCUGAUACUAGGAUUAGCAGAAGGCACAUGAGGAUCACCCAUGUCCAACUUGUCU [LRO-BmodExc4-11- Bluer = mod of Colors by Tatyana Zabanova] (Eterna round: R97, puzzle: Brourd's mod of Exclusion 4) | 34.4 | 24.5 | –
4 | GGCCGGGCAGGAUAUGCGUGGGUCCUCAUGAGGACCCACGUACAUGAGGAUCACCCAUGUAGAAGGGCCCGGCC (Eterna round: R97, puzzle: Exclusion 2) | 17.6 | 14.2 | –
5 | GGCCGUAAUAAGGAUAUCACUAGCUUCGGCUAGUGAGAAGGUAUUACAUGAGGAUCACCCAUGUGAUUAGGCCA [E6/5-B1] (Eterna round: R97, puzzle: Exclusion 6) | 98.1 | 25.2 | –
6 | GGCCUGUGAGGAUAUUAGUAGUAGAUGAAAUAAACUAUUACUGAGAAGGCACAUGAGGAUCACCCAUGUUGGCC [Mat - Exclusion 4 - Eli Mod - D36] (Eterna round: R97, puzzle: Exclusion 4) | 16.6 | 16.1 | –
7 | GGCCUUCCACAAGCUUUUUACAUGAGGAUCACCCAUGUGGUUUUUAGUCUUAUCCCGGGCCCGAUGUCGGGCCCGGG [-33.4, -54.7, A 16%] (Eterna round: R97, puzzle: Sensor, turn-off variant 1) | 27.4 | 28.4 | –
8 | GGCGAGGGAGGAUAUACGUGAUUGAUGCCGGGAACCCAGAGACAUGAGGAUCACCCAUGUAGAAGGCCCGGCUA [EX2 B.4] (Eterna round: R97, puzzle: Exclusion 2) | 10.9 | 14.5 | –
9 | GGGAUGUCAGGAUAUCCAAAAGUCUGCCAAUACAGCAGACAGGAGAAGGGACAUGAGGAUCACCCAUGUAAAGA [Atonis] (puzzle: Exclusion 4) | – | – | apparent KD of MS2 coat protein [1]: 33.5 nM
10 | GGGCCCGGAGGAUAUACAUGAGGAUCACCCAUGUAGGGCCCGGGUAUUCCCGGGUUUUGUAGAAGGCCGGGUUU [-33.8, -30.7 kcal, A 19%, 5a,5a] (Eterna round: R97, puzzle: Exclusion 3) | 25.1 | 14.8 | –
11 | GGGCCGCAAGUAAGGAUAUCCCUUAAAUUGUGAGCGGAGAAGGUACUUGAGGAUCACCCAAGUAUAGAAGAAAA [Arinbear] (Eterna round: R97, puzzle: Brourd's mod of Exclusion 4) | 54.2 | 15.2 | –
12 | GGGCCUUUGGUCAGGAUAUCUUAUUCCAGACUAUAGGAGAAGGGACUUGAGGAUCACCCAAGUAAAAUGAAAAC [Dizadi] (Eterna round: R97, puzzle: Brourd's mod of Exclusion 4) | 23.3 | 24 | –
13 | GGGCUGGGAGGAUAUUCGUUUGGAGACAUGAGGAUCACCCAUGUGAUGCGAGGGAAGUCCGGAGAAGGCUCGGUUC [-24.8, -21.2 kcal, 22% A] (Eterna round: R97, puzzle: Exclusion 5) | 24 | 15.9 | –
14 | GGGUGCAAGCUAAGAUCCUACAUGAGGAUCACCCAUGUGGUCCGGUGACGUGAGUCACCGGACUUAGCUCGUCUUGU [salish99_S_TOV1_R5_004] (Eterna round: R97, puzzle: Sensor, turn-off variant 1) | 91.2 | 95.6 | –
15 | GGUAAGCUAGGAUAUGCUUUGGGAAAGCAUUCCUUCGAUAAACUUGAGGAUCACCCAAGUAGAAGGAGCUUACU [salish99_ex2_r4_014] (Eterna round: R97, puzzle: Exclusion 2) | 19.2 | 14.4 | –
16 | GGUACUAACACGAUAGUGUUAGUACUAUAAGCUUGUGUUACAUGAGGAUCACCCAUGUCCUCAUAAGCUCGUCUUGA [Mat - Sensor v3 - Turn-off var 2 - D91] (puzzle: Sensor v3, turn-off variant 2) | – | – | apparent KD of MS2 coat protein [2]: 38 nM; apparent KD of MS2 coat protein [1]: 640 nM; apparent KD of MS2 coat protein [3]: 36 nM
17 | GGUACUCAAAGAGUACCAAUACGAACAUGAGGAUCACCCAUGUAGGAUAUGCUACUCAAAGAGUAGCAGAAGGACGUGUACCCU [Far Half Aptamer v2] (Eterna round: R96, puzzle: Exclusion NG 3) | 59.9 | 24.8 | apparent KD of MS2 coat protein [4]: 21.9 nM
18 | GGUACUCAAAGAGUACCAAUACGAACAUGAGGAUCACCCAUGUAGGAUAUGCUACUCAAAGAGUAGCAGAAGGACGUGUAUCUU [Far Half Aptamer v3] (Eterna round: R96, puzzle: Exclusion NG 3) | 60.5 | 30.8 | apparent KD of MS2 coat protein [4]: 18.9 nM
19 | GGUAGAGUGGUAGGAUAUCCGUCUGUUUCAGUCGGAGAAGGACCACAGUCACUGGGUCCAUGUUUCAUGGAGACCUGAUCUACC [pwkr exNG1 F6.9] (Eterna round: R96, puzzle: Exclusion NG 1) | 26.9 | 130 | apparent KD of MS2 coat protein [4]: 59.7 nM
20 | GGUAUACAUGAGGAUCACCCAUGUCAGGAUAUGGCGGCGUCGGCGAAAGCGGAGGCGGCCAGAAGGGACGAUAG [AK-MS2ROC-r4-exclusion1-6.1] (Eterna round: R97, puzzle: Exclusion 1) | 70.7 | 124 | –
21 | GGUCUGCGAGGAUAUACAUGAGGAUCACCCAUGUGCGAGUUACUUGUGAGGUCGGUUGGUAGAAGGCGCGGACG [JL-ex3-2.10 salish99 mod] (puzzle: Exclusion 3) | – | – | apparent KD of MS2 coat protein [2]: 51.9 nM; apparent KD of MS2 coat protein [1]: 68.6 nM; apparent KD of MS2 coat protein [3]: 86.8 nM
22 | GGUCUUCAAGUCAGGAUAUCGUAUAAUAGAUAUAACGAGAAGGGACAUGAGGAUCACCCAUGUCGUCUCAUCAG [Ex4 #21] (Eterna round: R97, puzzle: Brourd's mod of Exclusion 4) | 83.9 | 27 | –
23 | GGUGCGUAUGUGAGGAUAUGCUGGUCCUUGGAUCAGCAGAAGGCACAUGAGGAUCACCCAUGUGGUGUCGUUCC [salish99_Bmod_Ex4_020] (puzzle: Brourd's mod of Exclusion 4) | – | – | apparent KD of MS2 coat protein [1]: 363 nM
24 | GGUGCGUAUGUGAGGAUAUGCUGGUCCUUGGAUCGGCAGAAGGCACAUGAGGAUCACCCAUGUGGUGUCGUACA [salish99_Bmod_ex4_087] (puzzle: Brourd's mod of Exclusion 4) | – | – | apparent KD of MS2 coat protein [1]: 232 nM
25 | GGUGCGUAUGUGAGGAUAUGCUGGUCCUUGGCUCAGCAGAAGGCACAUGAGGAUCACCCAUGUGGUGUCGUACC [salish99_Bmod_Ex4_027] (puzzle: Brourd's mod of Exclusion 4) | – | – | apparent KD of MS2 coat protein [1]: 229 nM
